The values that follow come from patent US20240343791A1.

Assay [1] addresses human VEGFA (Cat. No. Z03073, Genscript) (human) (UniProt P15692). In words: competition ELISA, Eylea coated as competitor, 5 nM VEGFA dimer pre-incubated with Conbercept.
The target is the same in assay [2]. As to the kind of experiment: competition ELISA: plate coated with Eylea, Conbercept in dilution series pre-incubated with 5 nM VEGFA, VEGFA bound to Eylea detected. The sheet prints ng/mL, the text prints nM. Background: ELISA stands for enzyme-linked immunosorbent assay.
For assay [3] the target is unchanged. In words: SPR (Biacore), protein captured on protein A chip, VEGFA as analyte, 25 C. Background: In SPR one partner is held on a chip, and binding of the other changes the refractive index at the surface.
The target is the same in assay [4]. As to the kind of experiment: ELISA, plate coated with VEGFA, detection with HRP anti-human IgG.
For assay [5] the target is unchanged.

Sequence of Eylea (Fc fusion) (chain): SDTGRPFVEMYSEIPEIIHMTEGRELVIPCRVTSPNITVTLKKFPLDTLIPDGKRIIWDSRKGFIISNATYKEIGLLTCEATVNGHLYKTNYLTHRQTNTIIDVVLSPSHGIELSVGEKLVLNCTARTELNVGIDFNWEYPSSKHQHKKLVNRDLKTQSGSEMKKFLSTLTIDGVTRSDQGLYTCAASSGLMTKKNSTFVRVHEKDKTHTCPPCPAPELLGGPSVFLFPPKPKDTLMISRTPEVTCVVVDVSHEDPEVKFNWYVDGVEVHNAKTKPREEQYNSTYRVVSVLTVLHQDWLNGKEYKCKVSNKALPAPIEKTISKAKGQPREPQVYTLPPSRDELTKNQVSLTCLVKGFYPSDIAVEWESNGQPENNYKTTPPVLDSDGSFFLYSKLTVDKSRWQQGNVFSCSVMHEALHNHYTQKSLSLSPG
Sequence of human VEGFA (Cat. No. Z03073, Genscript) (human) (P15692 other isoform, or with tags, fused parts or gaps limits assumed): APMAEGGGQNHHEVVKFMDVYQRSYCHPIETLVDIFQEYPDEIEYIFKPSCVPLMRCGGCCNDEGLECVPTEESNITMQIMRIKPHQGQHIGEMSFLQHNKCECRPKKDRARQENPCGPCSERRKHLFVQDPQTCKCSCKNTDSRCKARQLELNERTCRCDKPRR
Sequence of Conbercept eye injection (Fc fusion) (chain): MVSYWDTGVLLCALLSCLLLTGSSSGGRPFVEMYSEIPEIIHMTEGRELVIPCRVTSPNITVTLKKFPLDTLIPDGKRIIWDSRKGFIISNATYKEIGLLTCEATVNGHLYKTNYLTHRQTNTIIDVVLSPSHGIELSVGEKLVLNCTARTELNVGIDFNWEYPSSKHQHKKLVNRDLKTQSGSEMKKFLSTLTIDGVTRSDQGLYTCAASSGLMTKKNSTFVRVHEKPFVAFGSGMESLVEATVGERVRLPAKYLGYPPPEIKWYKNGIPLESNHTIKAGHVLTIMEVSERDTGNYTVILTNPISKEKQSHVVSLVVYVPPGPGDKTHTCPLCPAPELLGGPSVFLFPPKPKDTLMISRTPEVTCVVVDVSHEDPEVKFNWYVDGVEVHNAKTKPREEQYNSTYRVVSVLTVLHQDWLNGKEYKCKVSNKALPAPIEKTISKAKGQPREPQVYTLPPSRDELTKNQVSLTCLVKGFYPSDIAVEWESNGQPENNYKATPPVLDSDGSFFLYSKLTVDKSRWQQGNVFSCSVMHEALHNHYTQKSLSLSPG

Broadly, the IC50 is the concentration that inhibits the measured activity by half. Read a high IC50 as weaker potency in that assay. On to Conbercept eye injection (Fc fusion), for which the IC50 was 16.9 nM in assay [1] and 0.0169 µg/mL in assay [2].

A word on the Kd: it is a measure of binding affinity in units of concentration. Lower therefore signals a tighter complex. As usually defined, the EC50 (read off the curve) is the concentration needed to bring the measured effect to its halfway point. A higher EC50 (read off the curve) goes with a less potent agent. In assay [3], Eylea (Fc fusion) registered a Kd of 0.0361 nM. The substance also registered an EC50 (read off the curve) in assay [4] of 70 ng/mL. In addition, the IC50 (inhibition of VEGFA-induced HUVEC proliferation, CellTiter-Glo) in assay [5] is 4.5 ng/mL.
